Laboratory results: paper PMC4728126, “Stable G protein-effector complexes in striatal neurons: mechanism of assembly and role in neurotransmitter signaling” (eLife, 2015)

Target: adenylyl cyclase type 5 (mouse (endogenous in striatum)) (UniProt P84309)
Sequence (P84309 whole entry): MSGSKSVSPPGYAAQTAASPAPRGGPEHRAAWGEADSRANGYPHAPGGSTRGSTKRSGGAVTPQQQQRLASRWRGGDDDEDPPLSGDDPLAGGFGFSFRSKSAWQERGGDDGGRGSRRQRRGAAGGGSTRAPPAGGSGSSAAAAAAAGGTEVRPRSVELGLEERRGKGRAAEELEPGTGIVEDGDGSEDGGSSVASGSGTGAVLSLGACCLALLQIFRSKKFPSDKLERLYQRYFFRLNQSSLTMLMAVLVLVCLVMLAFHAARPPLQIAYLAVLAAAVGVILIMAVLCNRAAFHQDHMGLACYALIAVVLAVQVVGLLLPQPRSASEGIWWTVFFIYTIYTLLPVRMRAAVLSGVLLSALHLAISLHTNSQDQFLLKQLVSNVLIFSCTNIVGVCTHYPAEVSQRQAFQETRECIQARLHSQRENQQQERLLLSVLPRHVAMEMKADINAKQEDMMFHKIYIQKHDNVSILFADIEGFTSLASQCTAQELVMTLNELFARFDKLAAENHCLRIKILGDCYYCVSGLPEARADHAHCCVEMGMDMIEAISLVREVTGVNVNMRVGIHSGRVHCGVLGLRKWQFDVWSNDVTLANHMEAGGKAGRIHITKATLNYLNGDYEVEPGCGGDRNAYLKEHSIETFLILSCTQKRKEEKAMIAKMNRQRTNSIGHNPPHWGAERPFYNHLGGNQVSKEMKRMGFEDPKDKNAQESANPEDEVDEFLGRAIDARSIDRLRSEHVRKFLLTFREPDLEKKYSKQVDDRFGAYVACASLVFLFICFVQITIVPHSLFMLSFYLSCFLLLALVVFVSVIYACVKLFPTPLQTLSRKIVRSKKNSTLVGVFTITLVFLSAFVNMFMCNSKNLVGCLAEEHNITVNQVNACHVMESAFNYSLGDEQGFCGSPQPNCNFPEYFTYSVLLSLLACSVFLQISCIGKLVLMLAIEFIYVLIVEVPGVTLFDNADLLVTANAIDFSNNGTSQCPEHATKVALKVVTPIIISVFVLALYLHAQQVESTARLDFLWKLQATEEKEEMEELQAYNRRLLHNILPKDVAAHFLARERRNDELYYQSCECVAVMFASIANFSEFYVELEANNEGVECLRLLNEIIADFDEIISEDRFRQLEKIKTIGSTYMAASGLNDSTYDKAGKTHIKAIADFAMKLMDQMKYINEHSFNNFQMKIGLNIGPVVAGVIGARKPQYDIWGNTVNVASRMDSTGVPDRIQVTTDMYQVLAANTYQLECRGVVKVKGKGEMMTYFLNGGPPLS

Chain of Gαs-GTPγS (P63092 whole entry): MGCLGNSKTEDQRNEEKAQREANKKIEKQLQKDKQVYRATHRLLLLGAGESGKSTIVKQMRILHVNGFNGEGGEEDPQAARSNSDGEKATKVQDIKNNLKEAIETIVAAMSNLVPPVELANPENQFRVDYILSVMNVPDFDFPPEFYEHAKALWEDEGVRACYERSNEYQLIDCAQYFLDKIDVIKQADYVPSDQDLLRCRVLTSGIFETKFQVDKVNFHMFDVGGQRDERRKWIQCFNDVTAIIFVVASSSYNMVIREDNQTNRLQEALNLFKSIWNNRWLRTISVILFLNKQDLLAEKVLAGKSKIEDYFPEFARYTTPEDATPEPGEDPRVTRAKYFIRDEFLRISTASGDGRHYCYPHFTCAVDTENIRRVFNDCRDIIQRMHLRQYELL

EC50 of Gαs-GTPγS-mediated activation of adenylyl cyclase in striatal membranes, PhLP1-treated reaction (0.5 μM purified PhLP1): 22.3 nM
EC50 of Gαs-GTPγS-mediated activation of adenylyl cyclase in striatal membranes, control reaction: 16.2 nM
Substance: Gαs-GTPγS (from UniProt P63092 1-394) (natural protein)
